Read-outs that look alike come from different tables or passages of the source. Each block holds one molecule with its values, some of them ahead of it.
Assays:
[1] = cited from earlier work
Experimental: In this regard, in a study by Ugur et al., the absorbed dose of kidneys was calculated to be 1090 mGy/MBq, based on biodistribution studies on AR42J rat pancreatic tumors ([2]), whereas an absorbed dose of 0.082 mGy/MBq was reported in kidneys of patients with disseminated neuroendocrine tumors ([37]). However, the absorbed dose of the pancreas as a somatostatin receptor-positive organ was not evaluated in previous research. || As mentioned earlier, the dose delivered to the pancreas has not been evaluated in previous literature. […] On the other hand, the absorbed dose of adrenal glands was somewhat lower than the value reported in the mentioned study, while being in great accordance with the absorbed dose of liver after ^68Ga-DOTATATE injection (0.015 mGy/MBq) in a study by Walker et al. ([41]). || In the present study, the effective absorbed dose was calculated at 0.026 mSv/MBq, which was higher than the value reported by Sandstrom and colleagues (0.021 mSv/MBq). The lower effective absorbed dose in the mentioned study corresponded to lower organ consideration for dosimetric calculations, compared to the present study. Finally, the dose received by critical organs was well within the acceptable range for diagnostic nuclear medicine procedures ([31], [42]).

[2] = in vivo; conditions: male, Syrian, rat, iv, 5.55 MBq, total radioactivity, Percentage of injected dose per gram (%ID/g)
Experimental: (§1) The total amount of radioactivity injected in each animal was measured by counting the 1 mL syringe before and after the injection in a dose calibrator with fixed geometry. The biodistribution of the solution among tissues was determined by sacrificing four rats at each selected time interval (15, 30, 60 and 120 min) after injection, based on animal care protocols.
(§2) Blood samples were rapidly taken after animal sacrifice. The tissues (heart, kidneys, spleen, stomach, intestine, lung, liver, skin, bone, muscle, thyroid, adrenal glands, salivary gland and pancreas) were weighed and rinsed with normal saline and their activities were determined, using a p-type coaxial HPGe detector, coupled with a multi-channel analyzer, based on Equation 1 ([20]):
(§3) The percentage of the injected dose per gram (%ID/g) for different organs was calculated by dividing the amount of activity in each tissue (A) to the decay-corrected injected activity and the mass of each organ. Four rats were sacrificed at each time interval. All values were expressed as mean ± standard deviation and the data were compared, using student’s t-test.

[3] = set-up: species or system human
Experimental: The accumulated source activity for each animal organ was calculated according to Equation 4, where A (t) is the activity of each organ at time t: For this purpose, data points representing the non-decay corrected percentage of the injected dose were created. A linear approximation was applied between the two experimental points of time. The curves were extrapolated to infinity by fitting the tail of each curve to a mono-exponential curve with an exponential coefficient equal to the physical decay constant of ^68Ga. The accumulated activity in animals was calculated by computing the area under the curves, extrapolated to the accumulated activity in human organs, using a method proposed by Sparks et al. (Equation 5) and the standard mean weight of each human organ ([21], [22], [23]): The absorbed dose in human organs was calculated by the Radiation Absorbed Dose Assessment Resource (RADAR) formalism, based on the biodistribution data in rats ([22]): In the equation above, ni is the number of radiations with energy E emitted per nuclear transition, Ei is the energy per radiation (MeV), Qi is the fraction of emitted energy absorbed by the target, m is the mass of the target region (kg) and k is the proportionality constant [drawing 8] DF represents the physical decay characteristics of the radionuclide, the range of emitted radiations and the organ size and configuration, expressed in mGy/MBq.s ([24]). In this study, DF values were obtained from OLINDA/EXM software ([22]). The effective absorbed dose in each organ was calculated, using the following formula: […] where HT is the equivalent absorbed dose in each organ and WT is the tissue-weighing factor, which represents a subjective balance between different stochastic health risks ([25]). WT was obtained from the International Commission on Radiological Protection (ICRP) publication 103 ([26]).

[4] = Biodistribution in Syrian rats after intravenous injection; conditions: male Syrian rats; for Percentage of injected dose per gram (%ID/g), Blood / Percentage of injected dose per gram (%ID/g), Bone / Percentage of injected dose per gram (%ID/g), Intestine / Percentage of injected dose per gram (%ID/g), Kidneys / Percentage of injected dose per gram (%ID/g), Liver / Percentage of injected dose per gram (%ID/g), Spleen / Percentage of injected dose per gram (%ID/g), Stomach: 5.55 MBq i.v. tail vein, mean ± SD, n = 4
Experimental: as §1, §2, §3

[5] = 5.55 MBq i.v., maximum over 15-120 min, time not stated

Structure (SMILES): C[C@@H](O)[C@@H]1NC(=O)[C@H](CCCCN)NC(=O)[C@@H](Cc2c[nH]c3ccccc23)NC(=O)[C@H](Cc2ccc(O)cc2)NC(=O)[C@@H](NC(=O)[C@@H](Cc2ccccc2)NC(=O)CN2CCN(CC(=O)O)CCN(CC(=O)O)CCN(CC(=O)O)CC2)CSSC[C@@H](C(=O)N[C@H](CO)[C@@H](C)O)NC1=O [^68Ga-DOTATOC, Gallium-68 DOTA-DPhe^1-Tyr^3-Octreotide, metal not drawn]
Absorbed dose of kidneys [1]: 0.082 mGy/MBq
Effective absorbed dose [1]: 0.021 mSv/MBq
tissue uptake at 0.25 h ([2]; Adrenal): 0.91 ± 0.05 %ID/g
tissue uptake at 0.5 h ([2]; Adrenal): 0.75 ± 0.06 %ID/g
tissue uptake at 1 h ([2]; Adrenal): 0.6 ± 0.04 %ID/g
tissue uptake at 2 h ([2]; Adrenal): 0.44 ± 0.01 %ID/g
tissue uptake at 0.25 h ([2]; Blood): 4.51 ± 0.21 %ID/g
tissue uptake at 0.5 h ([2]; Blood): 1.98 ± 0.15 %ID/g
tissue uptake at 1 h ([2]; Blood): 1.53 ± 0.11 %ID/g
tissue uptake at 0.25 h ([2]; Bone): 0.95 ± 0.08 %ID/g
tissue uptake at 0.5 h ([2]; Bone): 0.58 ± 0.03 %ID/g
tissue uptake at 2 h ([2]; Bone): 0.05 %ID/g
tissue uptake at 0.25 h ([2]; Heart): 1.68 ± 0.08 %ID/g
tissue uptake at 0.5 h ([2]; Heart): 1.01 ± 0.07 %ID/g
tissue uptake at 1 h ([2]; Heart): 0.73 ± 0.07 %ID/g
tissue uptake at 2 h ([2]; Heart): 0.03 %ID/g
tissue uptake at 0.25 h ([2]; Intestine): 0.48 ± 0.06 %ID/g
tissue uptake at 0.5 h ([2]; Intestine): 0.56 ± 0.05 %ID/g
tissue uptake at 1 h ([2]; Intestine): 0.39 ± 0.04 %ID/g
tissue uptake at 2 h ([2]; Intestine): 0.38 ± 0.04 %ID/g
tissue uptake at 0.25 h ([2]; Kidneys): 11.9 ± 0.21 %ID/g
tissue uptake at 0.5 h ([2]; Kidneys): 8.99 ± 0.13 %ID/g
tissue uptake at 1 h ([2]; Kidneys): 8 ± 0.18 %ID/g
tissue uptake at 2 h ([2]; Kidneys): 2.51 ± 0.1 %ID/g
tissue uptake at 0.25 h ([2]; Liver): 0.79 ± 0.09 %ID/g
tissue uptake at 0.5 h ([2]; Liver): 0.58 ± 0.08 %ID/g
tissue uptake at 1 h ([2]; Liver): 0.46 ± 0.03 %ID/g
tissue uptake at 2 h ([2]; Liver): 0.2 %ID/g
tissue uptake at 0.25 h ([2]; Lung): 0.35 ± 0.06 %ID/g
tissue uptake at 1 h ([2]; Lung): 0.13 ± 0.01 %ID/g
tissue uptake at 2 h ([2]; Lung): 0.02 %ID/g
tissue uptake at 0.25 h ([2]; Muscle): 0.4 ± 0.05 %ID/g
tissue uptake at 2 h ([2]; Muscle): 0.02 %ID/g
tissue uptake at 0.25 h ([2]; Pancreas): 12.8 ± 0.28 %ID/g
tissue uptake at 0.5 h ([2]; Pancreas): 9.55 ± 0.18 %ID/g
tissue uptake at 1 h ([2]; Pancreas): 6.62 ± 0.22 %ID/g
tissue uptake at 2 h ([2]; Pancreas): 5.31 ± 0.15 %ID/g
tissue uptake at 0.25 h ([2]; Salivary gland): 1.22 ± 0.1 %ID/g
tissue uptake at 0.5 h ([2]; Salivary gland): 0.77 ± 0.04 %ID/g
tissue uptake at 1 h ([2]; Salivary gland): 0.54 ± 0.03 %ID/g
tissue uptake at 1 h ([2]; Skin): 0.08 %ID/g
tissue uptake at 2 h ([2]; Skin): 0.03 %ID/g
tissue uptake at 0.25 h ([2]; Spleen): 0.38 ± 0.04 %ID/g
tissue uptake at 0.5 h ([2]; Spleen): 0.93 ± 0.07 %ID/g
tissue uptake at 1 h ([2]; Spleen): 0.16 ± 0.02 %ID/g
tissue uptake at 2 h ([2]; Stomach): 0.17 ± 0.02 %ID/g
tissue uptake at 1 h ([2]; Thyroid): 0.16 ± 0.04 %ID/g
Effective absorbed dose [3]: 0.026 mSv/MBq
Equivalent absorbed dose in humans, Adrenals [3]: 0.010 mGy/MBq
Equivalent absorbed dose in humans, Bone Surf [3]: 0.008 mGy/MBq
Equivalent absorbed dose in humans, Heart [3]: 0.004 mGy/MBq
Equivalent absorbed dose in humans, Kidneys [3]: 0.074 mGy/MBq
Equivalent absorbed dose in humans, Liver [3]: 0.010 mGy/MBq
Equivalent absorbed dose in humans, Lungs [3]: 0.001 mGy/MBq
Equivalent absorbed dose in humans, Red Marrow [3]: 0.003 mGy/MBq
Equivalent absorbed dose in humans, Small Intestine [3]: 0.008 mGy/MBq
Equivalent absorbed dose in humans, Spleen [3]: 0.009 mGy/MBq
Equivalent absorbed dose in humans, Stomach [3]: 0.003 mGy/MBq
Equivalent absorbed dose in humans, Total Body [3]: 0.008 mGy/MBq

Percentage of injected dose per gram (%ID/g), Blood ([4]; 15 min after injection): 3.18±0.17 %ID/g
Percentage of injected dose per gram (%ID/g), Bone ([4]; 15 min after injection): 0.56±0.06 %ID/g
Percentage of injected dose per gram (%ID/g), Intestine ([4]; 15 min after injection): 0.71±0.06 %ID/g
Percentage of injected dose per gram (%ID/g), Kidneys ([4]; 15 min after injection): 0.70±0.09 %ID/g
Percentage of injected dose per gram (%ID/g), Liver ([4]; 15 min after injection): 0.91±0.02 %ID/g
Percentage of injected dose per gram (%ID/g), Spleen ([4]; 15 min after injection): 0.51±0.09 %ID/g
Percentage of injected dose per gram (%ID/g), Stomach ([4]; 15 min after injection): 0.41±0.11 %ID/g
Percentage of injected dose per gram (%ID/g), Blood ([4]; 30 min after injection): 2.98±0.12 %ID/g
Percentage of injected dose per gram (%ID/g), Bone ([4]; 30 min after injection): 0.91±0.10 %ID/g
Percentage of injected dose per gram (%ID/g), Intestine ([4]; 30 min after injection): 0.82±0.08 %ID/g
Percentage of injected dose per gram (%ID/g), Kidneys ([4]; 30 min after injection): 0.41±0.10 %ID/g
Percentage of injected dose per gram (%ID/g), Liver ([4]; 30 min after injection): 1.50±0.12 %ID/g
Percentage of injected dose per gram (%ID/g), Spleen ([4]; 30 min after injection): 0.70±0.06 %ID/g
Percentage of injected dose per gram (%ID/g), Stomach ([4]; 30 min after injection): 0.56±0.07 %ID/g
Percentage of injected dose per gram (%ID/g), Blood ([4]; 60 min after injection): 2.53±0.11 %ID/g
Percentage of injected dose per gram (%ID/g), Bone ([4]; 60 min after injection): 1.20±0.11 %ID/g
Percentage of injected dose per gram (%ID/g), Intestine ([4]; 60 min after injection): 0.89±0.05 %ID/g
Percentage of injected dose per gram (%ID/g), Kidneys ([4]; 60 min after injection): 1.42±0.12 %ID/g
Percentage of injected dose per gram (%ID/g), Liver ([4]; 60 min after injection): 0.78±0.08 %ID/g
Percentage of injected dose per gram (%ID/g), Spleen ([4]; 60 min after injection): 1.03±0.10 %ID/g
Percentage of injected dose per gram (%ID/g), Stomach ([4]; 60 min after injection): 1.21±0.09 %ID/g
Percentage of injected dose per gram (%ID/g), Blood ([4]; 120 min after injection): 2.44±0.14 %ID/g
Percentage of injected dose per gram (%ID/g), Bone ([4]; 120 min after injection): 1.05±0.09 %ID/g
Percentage of injected dose per gram (%ID/g), Intestine ([4]; 120 min after injection): 0.61±0.07 %ID/g
Percentage of injected dose per gram (%ID/g), Kidneys ([4]; 120 min after injection): 0.91±0.08 %ID/g
Percentage of injected dose per gram (%ID/g), Liver ([4]; 120 min after injection): 0.60±0.05 %ID/g
Percentage of injected dose per gram (%ID/g), Spleen ([4]; 120 min after injection): 1.43±0.12 %ID/g
Percentage of injected dose per gram (%ID/g), Stomach ([4]; 120 min after injection): 1.54±0.14 %ID/g
Activity content in the bone, maximum value [4, 5]: 1.20 %ID/g
Activity content in the stomach, maximum value [4, 5]: 1.54 %ID/g
Structure (SMILES): [Cl][68Ga]([Cl])[Cl] [^68GaCl3]

Reference: article PMC4937676 (Asia Oceania Journal of Nuclear Medicine and Biology, 2016)
